Measured values: the nanobody polyreactivity screen of Harvey et al. (2022)

Test: yeast display, Sf9 membrane polyspecificity reagent, FACS + sequencing; frameworks hold sequencing errors
Method in brief: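 Nanobodies from a synthetic yeast display library (Saccharomyces cerevisiae BJ5465), induced 36–48 hours with galactose, were stained 1 hour at 4 °C with 10% biotinylated, detergent-solubilized Sf9 membrane reagent, enriched on streptavidin microbeads, then FACS-sorted. Anti-HA (expression) and streptavidin (reagent binding) fluorescence set low and high (top ~1%) gates. Polyreactivity labels come from the gate of origin. Genes were colony-PCR amplified, MiSeq 2 × 250 sequenced and filtered by CDR length.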
With “QVQLVETGGGLVQAGGSLRLSCAASGTFHWYAMGWYRPAPGKERELVAAITGSGGNTYYADSVKGRFTISRDNAKNTVYLQMNSLKPEDTAVYYCAARIYTWSVQYTGYGYWGQGTQVTVSS” the “polyreactivity (PSR sort gate)” value was “high polyreactivity”.
In the case of “QVQLVETGGGLVQAGGSLRLSCAASGYIFYVYAMGWYRQPPGKERELVAAINSGDITYYADSVKGRFTISRDNAKNTVYLQMNRLKPEDTAVYFGATVLILIYDYWGQGTQVTVSS”, the “polyreactivity (PSR sort gate)” value is reported as “low polyreactivity”.
In the case of “QVQLVETGGGLVQAGGSLRLSCAASVFTFPTYTMGWYRQAPGKEREFVARITKRGGSTYYADSVKGRFTISRVNVKNTVYLQRKCVKPEDTAVYYCDAGFWWSSYGYWGQGSQVTVSS”, the “polyreactivity (PSR sort gate)” value is reported as “high polyreactivity”.
With “QVQLVETGGGLVQAGGSLRLSCAGSVSIFNRNAMGWYRQAPGKERELVAAISNSGARTYYADSVKGRFTISRDNAKNTVYLQMNSLKPEDTAVYYCTAVRRRSKLYNYWGQGTQVTVSS” the “polyreactivity (PSR sort gate)” value was “high polyreactivity”.
In the case of “QVQLVETGGGLVQAGGSLRLSCAHSGSIFASNAMGWYRHAPGKEREFVAAIRYSGGITYYADSVKGRFTISRDNAKNTVYLQMTSLKPEDTAVYYCAAYGWGNRWYSRFDYWGQGTQVTVSS”, the “polyreactivity (PSR sort gate)” value is reported as “high polyreactivity”.
With “QVQLVETGGGLVQAGGSLRLSCAPSGRIFGIYAMGWYRQAPGKERELVASITDGTITNYADSVKGRFTISRDNAKNTVYLQMNSLKPVDTAVYYFAAGTQAHAYVVRPIEMDYWGQGTQVTVSS” the “polyreactivity (PSR sort gate)” value was “low polyreactivity”.
In the case of “QVQLVETGGGLVQAGGSLRLSCAPSGSTFYYYVMGWYRPPPGNERELVAAINSGGSTYYADSVKGRFTISRDNAKNTVYLQMNSLKPEDTAVYYCAKSWSYWYQYFYWGQGTQVTVSS”, the “polyreactivity (PSR sort gate)” value is reported as “low polyreactivity”.
In the case of “QVQLVETGGGLVQAGGSLRLSCEASGTIFTYAMGWYRQAPRKERELVAVISWSGASTYYADSVKGRLTISRDNAKNSVYLQMNSLKTEDTAVYYCAVYRYYKLVHLYGFDYWGQGTQVTVSS”, the “polyreactivity (PSR sort gate)” value is reported as “high polyreactivity”.
For “QVQLVETGGGLVQAGGSLRLSSAASGIIFKTYAMGWYRQARGKERELLAGIDYSGGGTSYADSVKGRFTISRDNAKNTVYLQMNSLKPEDTAVYYCNAEWWSWGSDSYTYDYPETYDYRGQGTQVTVSS”, the “polyreactivity (PSR sort gate)” value was “low polyreactivity”.
For “QVQLVETGGGLVQAGGSLSLSCAASGRTFGRYAMGWYRQAPGKERELVAAITWSGGSTYYADSVKGRFTISRDNAKNTVYLQMNSLKPEDTAVYYCAASGYPIYHDDYWGQGTQVTVSS”, the “polyreactivity (PSR sort gate)” value was “low polyreactivity”.
In the case of “QVQLVETGGGLVQAGGTLRLAVLPPDLPSTLNDMGWYRQATGKERELVAAITRGGSTNYADSVKGRFTISRDNAKNTVYLLMNSLKPEDTAVYYCAARSAGWRDGGDYWGQGTQVTVSS”, the “polyreactivity (PSR sort gate)” value is reported as “low polyreactivity”.
With “QVQLVETGGGLVQAGGTLRLSCAPSGLIVDLYAMGCYRQAPGKERELVATISGSGGSTYYADSEKGRFTISRDNAKNTVYLQMNSLKPEDTAFYYCAAVSVSSWYDDCGQGTQVTVSS” the “polyreactivity (PSR sort gate)” value was “low polyreactivity”.
For “QVQLVETGGGLVQAGGTLRLSCAPSGRIFPYNDMGLYRQAPGKERELVAANSSGGTTDYADSVKGRFTISRDNAKNTVYLQMNSLKPEDTAVYYCAATYVYWTWGYDYWGQGTQVTVSS”, the “polyreactivity (PSR sort gate)” value was “low polyreactivity”.
With “QVQLVETGGRLGQAGGSLRLSCAASGRTFGYNAMGWYRQAPGKERELVAAISWSGTRTYYADSVKWRFTISRDNAKNTVYLQRNSLKPEDTAVYYCAARIAVYGGSYGWFDYWGQGTQVTVSS” the “polyreactivity (PSR sort gate)” value was “high polyreactivity”.
With “QVQLVETGGVLVQAGGSLRLSCAASGRIFPPNAMGWSRQAPGKEREFVASINRSGGRTYYADSVKGRFTISRDNAKNTVYLQMNSLKPEDTAVYYCAATGGYSCPLGVSWKYEYWGQGNQVTVSS” the “polyreactivity (PSR sort gate)” value was “low polyreactivity”.
For “QVQLVETGGVLVQAGGSLRLSCAASGRTFRYNAMGWYRPAPGKEREFVAAITWGGGSTYYADSVKGRFTISRDNAKNTVYLQMNSLKPEDTAVYYCNADYIGNYQSIYQYDYWGQGTQVTVSS”, the “polyreactivity (PSR sort gate)” value was “low polyreactivity”.
With “QVQLVETGGVLVQAGGSLSLSCAASGSTFGWYVMGWYRQAPGKERELVAAITYSGDSTYYADSVKGRFTISRDNAKNTVYLQMNSLKPEDTAVYYCAADLSGYGKRYDYWGQGNQVTVSS” the “polyreactivity (PSR sort gate)” value was “low polyreactivity”.
In the case of “QVQLVETGVGLVQAGGILRLSCAASGSTFTNNGIGWYRQAPGKEREVVATNSWDGDSTYYAYSVKGRFSISRDTAKNTVYLQMNSLKPEDTAVYYCAADEWGSDSALNFEYWGQGTQVTVSS”, the “polyreactivity (PSR sort gate)” value is reported as “low polyreactivity”.
In the case of “QVQLVETRGGLVQAGGSLRLSCAASGSIFRTNVMGRYRQAPGKERELVAAISRRGGSTYYADSVKGRFTISRDNAKNTVYLQMITLKPEDTAVYYCAASSSAYRDDYWGQGTQVTVSS”, the “polyreactivity (PSR sort gate)” value is reported as “high polyreactivity”.
With “QVQLVETRGGLVQAGGSLRLTCAASGRTFEGYAMGWYRQAPGKEREFVAAITDGDSTYYADSVKGRFTISRDNAKNTVYLQMNSLKPEDTAVYYCAADRQTWYWYTAYLKYDYWGQGSQVTVSS” the “polyreactivity (PSR sort gate)” value was “low polyreactivity”.
In the case of “QVQLVETRGGLVQAGGTLRLSCAASGYTVYRYAKGWYRQAPGKERELVAGISRDGGSTYYADSVKGRFTISRDNAKNTVYLQMNSLNPEDTAVYYCAADKTRYRLGRDYWGQGTQVTVSS”, the “polyreactivity (PSR sort gate)” value is reported as “low polyreactivity”.
For “QVQLVETRGGLVQAGGTLRLSFAASGSTFSYYTMGWYRHAPGTERELVGSIDSSGGSTYYADSVKGRFTISRDNAQNTVYLQMNSLKPEDTAVYYCATGDEWGYDYWGQGTQVTVSS”, the “polyreactivity (PSR sort gate)” value was “low polyreactivity”.
In the case of “QVQLVETVGGLVQAGFSLRLSCAASGFTYGAYAMGLYRQPPGKERELVAAITLRTGGSTYYADSVKGRFTISRDNAKYTVYLQMNSLKPEDTAVYYCAARVGLSPGGYGYWGQGTQVTVSS”, the “polyreactivity (PSR sort gate)” value is reported as “high polyreactivity”.
In the case of “QVQLVEYGGGLDQAGGSLRLSCAAYGLTFSPYAMGWYRQAPGKEMELVATITIGGSTKYADSVKGRVTISRDNAKNTVYLQMNSLKPEDTAVYYCAVRSGYVTRRYDYWGQGTQVTVSS”, the “polyreactivity (PSR sort gate)” value is reported as “low polyreactivity”.
In the case of “QVQLVGAGGGLVHAGGSLLLSCAASGFTLGSNAMGWYRQAPGKERALVAASSKSGGSTYYADSVKGRFTISRDNAKNTVYLQMTSLKPEDTAGYYCAARPIHYPPYYYWGQGTQVTVSS”, the “polyreactivity (PSR sort gate)” value is reported as “high polyreactivity”.
With “QVQLVKSGGGLVQAGGSLRLSCAASGRIIDRNAMGWYRQAPGKERELVAAISSSGSTNYADSVKGRFTISRDNAKNTVYLQMNSLKPQDTAVYYCAARWRSVLAAGTRPVSFDYWGQGTQVTVSS” the “polyreactivity (PSR sort gate)” value was “low polyreactivity”.
In the case of “QVQLVKSGGGLVQAGGSLRLSCAASGRTFWGYAMGWYRQAPGKERELVAAISSGGDTTYADSVKGRCTISRDNAKNTVYLQMNSLKPEDTAVYYCAADRWIPVYILGADGYDYWGQGTHVTVSS”, the “polyreactivity (PSR sort gate)” value is reported as “low polyreactivity”.
With “QVQLVKSGGGLVQAGGSLRLSCAASGSTFRYYVMGWYRQAPGKERELVATISRGGITKYADSVKGRFTSSRDNAKNTVYLQMHSLKPEDTAVYYCNTRGSRQGKFDYWGQGTQVTVSS” the “polyreactivity (PSR sort gate)” value was “high polyreactivity”.
With “QVQLVQAGGGLVQAGGSLRLSSAPSGFTLYHYARGWYSQAPGKERQLVASITRSGASTYYPDSVKGRFTISRDNAKYTVYVQMNSLKPEDPAVYYCNKVRYTSSIWTYYDWGQGTQVTVSS” the “polyreactivity (PSR sort gate)” value was “high polyreactivity”.
With “QVQLVQSGGCLVQAGGSLRLSCAASGSTFRYKAMGWYRQAPGKERELVATITGSGGSTYYADSVKGRFTISRDNAKNTVYLQMNSLKAEDTAVYYCNARYKRAAWRYDYWGQGTQVSVSS” the “polyreactivity (PSR sort gate)” value was “high polyreactivity”.
With “QVQLVQSGGCLVQAGGSLRLSCAASGSTIGDNAMGWYRQAPGKERELDAAIDYSGGSTRYADSVKGRFTISRDNAKNTVYLQMNSLKPEDTAVYYCAADYASGSRLFPKTLDYWGQGTQVTVSS” the “polyreactivity (PSR sort gate)” value was “low polyreactivity”.
In the case of “QVQLVQSGGGLFQAGGSLRLSCAPSGSIFDPNALGWYRQAPAKERELVAAISSGGSRKYSDSVKGRFTISRDNAKNTVYLQMNRLIPEDTAVYYCDASPRQGMYYWGQGTQVTVSS”, the “polyreactivity (PSR sort gate)” value is reported as “high polyreactivity”.
With “QVQLVQSGGGLVKAGGSLRLRCAASGFTFVKYAMGCYRQAPGKERELIAVISRRGGSTYYADSVKGRFTISRDNAKNTVYLQMNSLKPEDSAVYYCAGVYYLYSAWRYDYWGLGTQVTVSS” the “polyreactivity (PSR sort gate)” value was “high polyreactivity”.
For “QVQLVQSGGGLVQAGGRLSLSCAASGRTIDTYAMGWYRQAPGKERELVAAITRRTYYADSVKGRFTISRDNAKNSVYLQMNSLKPEDTAVDYCAVRFLRKWTSSRHYGYWGQGTQVTLSS”, the “polyreactivity (PSR sort gate)” value was “high polyreactivity”.
With “QVQLVQSGGGLVQAGGSHRLSCAASGFIFPVYAMGWYRQPPGKERELFASMTTGGSTNYADSVKGRFTITRDNAKNSVYLQMNSLKPEDTAVYDCNQDTPASLANQYNYGGQGTQVTVSS” the “polyreactivity (PSR sort gate)” value was “low polyreactivity”.
In the case of “QVQLVQSGGGLVQAGGSLRLSCAAMGWYRQAPGKERELVATITWSGGSTYYADSVKGRFTISRDNAKNTVYLQMNSLKPEDTAVYYCNARATLLSPANTILGYDYWGQGTQVTVSS”, the “polyreactivity (PSR sort gate)” value is reported as “low polyreactivity”.
In the case of “QVQLVQSGGGLVQAGGSLRLSCAASGITFWYYAMGWYRQAPGKERELVAAITGGSTYYADSVKGRFTISRDNAKNTVYLQMNSLKPEDTAVYYCNADSLFEYLDYDYWGQGTQVTVSS”, the “polyreactivity (PSR sort gate)” value is reported as “low polyreactivity”.
With “QVQLVQSGGGLVQAGGSLRLSCAASGRIFRYYGMGWYRQAPGKERELVAAISWNSGSTYYADSVKGRFTISRDNAKNTVYLQMNSLKPEDTAVYYCNKVLFISGYVRNYGEYEYWGQGTQVTVSS” the “polyreactivity (PSR sort gate)” value was “high polyreactivity”.
With “QVQLVQSGGGLVQAGGSLRLSCAASGRIFVNNAMGWYIQAPGKERELVAAISVSGTTTYYADSVKGRFTISRDNAKNTVYLQMNSLKPEDTAVFYCAAEGSTYQGAPGVYYWGQGTQVTVSS” the “polyreactivity (PSR sort gate)” value was “high polyreactivity”.
For “QVQLVQSGGGLVQAGGSLRLSCAASGRTFGTYAMGWYRQAPGKEREFVAVITNRGGRTYYADSVKGRFTISRDNAKNTVYLQMNSLKPEDTAVYYCTAVGRGWAFDYWGQGTQVTVSS”, the “polyreactivity (PSR sort gate)” value was “high polyreactivity”.
In the case of “QVQLVQSGGGLVQAGGSLRLSCAASGRTFYYNAMGWYRQAPGKERELVAAITSTGGSTYYADSVKGRFTISRDNAKNTVYLQMNSLKPEDTAVYYCNTLGYTQTRGLDYWGQGTQVTVSS”, the “polyreactivity (PSR sort gate)” value is reported as “low polyreactivity”.
With “QVQLVQSGGGLVQAGGSLRLSCAASGSIFDYNTMGWYRQAPGKERELVATISWSGDSTYYADSVKGRFTISRDNAKNTVYLQMNSLKPEDTAVYYCNADDPPGAPYYDSFDYRGDYWGQGTQVTVSS” the “polyreactivity (PSR sort gate)” value was “low polyreactivity”.
In the case of “QVQLVQSGGGLVQAGGSLRLSCAASGSTFSQYVMGWYRQARGKERELVAAINKNGGRTYYADSVKGRFTISRDNAKNTVYFQMISLKPEDTAVYYCAADVYGQDDYWGQGTQVTVSS”, the “polyreactivity (PSR sort gate)” value is reported as “high polyreactivity”.
